Target: T1, Eglin C (secreted from E. coli W3110 via the MccV system, positive secretion supernatant)
T1 chain: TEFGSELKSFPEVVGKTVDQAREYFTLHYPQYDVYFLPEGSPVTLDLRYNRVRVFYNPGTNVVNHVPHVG

B1: neutrophil elastase (protein)
chain: IVGGRRARPHAWPFMVSLQLRGGHFCGATLIAPNFVMSAAHCVANVNVRAVRVVLGAHNLSRREPTRQVFAVQRIFENGYDPVNLLNDIVILQLNGSATINANVQVAQLPAQGRRLGNGVQCLAMGWGLLGRNRGIASVLQELNVTVVTSLCRRSNVCTLVRGRQAGVCFGDSGSPLVCNGLIHGIASFVRGGCASGLYPDAFAPVAQFVNWIDSIIQ
  neutrophil elastase (NE) activity assay (fluorogenic substrate, RFU over time): NE activity with Eglin C positive secretion was comparable to positive control, which is NE with purified Eglin C (1.5 µM) while NE activity with Eglin C negative secretion showed a similar level with the sample having only NE
